Laboratory results as given in patent US20220396614A1.

Molecular target: NANP 5.5-mer peptide, NP(NANP)5, representative of the PfCSP central repeat (Plasmodium falciparum (NF54))
Experiment: SPR (FIG. 5E)

Row | Substance | fold lower affinity than mAb 4493 [fold] | Kd [pM]
1 | mAb CIS43 (antibody) | 100 | –
2 | mAb 317 (antibody) | – | < 100
